Test results reported in the DeepSol protein solubility set.

experiment: soluble on expression in E. coli; label from the status in PepcDB or PDB records

| Sequence | soluble on expression in E. coli |
| --- | --- |
| MSLSLSHFRITRFQFARDRVIGDSQVRADDVNVAALELVSESGEVGLGFIQTLFNPLPDQQEIESVFEHEVWPSLKGNRAIALVHRVNRPRGGNQRAYSLPFHEAVQVALWDLAAKEAGLPLHVLLGSRRNRVKAYASGLDFHLDDDAFVSLFSHAASIGYSAFKIKVGHRDFDRDLRRLELLKTCVPAGSKVMIDPNEAWTSKEALTKLVAIREAGHDLLWVEDPILRHDHDGLRTLRHAVTWTQINSGEYLDLQGKRLLLEAHAADILNVHGQVTDVMRIGWLAAELGIPISIGNTFLEAGVHMAVALPEVEWLEYSFQNFDHLVEQPIEIRDGYAYAPDRPGHGLVLSEKARGEWSRPRRLARSELGAAPENPRLPAKEGHHHHHH | soluble |
| MIIQIEEYFIGMIFKGNQLVRNTIPLRREEIFNFMDGEVVSNPEDEHLKVAEIILKLYFAEIDDKKVRELISYKLEVPEFTKKVLDIVKDIEFGKTLTYGDIAKKLNTSPRAVGMALKRNPLPLIIPCHRVVAKNSLGGYSYGLDKKKFILERERLNMVSFKFNKVY | soluble |
| MTSESSGNTGGAMDEPTEKKPKEFSDLPDHVLQRIMEKVEPSDRLSVRKVNRNLRQLIDEMDPGFRSISVNISTRKGVLVSYDNGSFIHYQQVYDDCEMFGRKEKKRFFNENAVKMAINDVIRVMSHPMSNVKLFRTGIPTKPEMERSRSTGKQWKRAKILCANRGFMEVSMKHLCHFSRVVVNQARTSMQTAIEIRDILLKSTSIEYVDFCSRDGVTIDAVRVFIPETANVNQTTDYDNFTFSSSMCSLNFKKKR | not soluble |
| SLRKIANSITEPIEQLVTAMKSVQHSGIEAGVSLSLPEHTQDEAGMLNRHFTVMMKRINELMEENVEKQLIIKETELKALQAQINPHFLYNTLESINWLAKANQQKQISKMVESLGFLLRNSIHMKKDIVTIQEEADIVRHYMTIQRFRFEERLKFTLDIDDEVKHCLIPKLTLQPLAENAIQYALEPFTRPCAIRIQAKKAKGCVCITVEDNGPGMDGRILESTGGRGIGLWNIRERISLTFGEPYGLRIHSEHEKGTRIVITIPCRNEVV | soluble |
| MRIFLDANVIADWILLKNKNQDASDPLLTERYRHMAESFKLVEEILKLKEKVSGTSQMAIAEVFGVIYDDAINMKLFREAVPASSWYWFSIRERKALSEDSQQLFLMEPHTSPQGI | not soluble |
| MIGMMNSGAESSVEFYAAARQSSLYEPRKKSSQSRTYTPEGRVLVNGAPLSPTLDPQDLWKNMIIKTAAQKMIRENCEKKETGPMATIRRLSEKLKLKKSKSSAAMMNLDLDLDQKIPEVSEIESSSTTAVPQSPQQFVTNIRIEEANPVFFVQQSESLDRPHMLFEETSVLARLLEESSQIDKMEKDFAEKDSGKGSIDDDSVVVHKL | not soluble |
| MKRLQAFKFQLRPGGQQECEMRRFAGACRFVFNRALARQNENHEAGNKYIPYGKMASWLVEWKNATETQWLKDSPSQPLQQSLKDLERAYKNFFRKRAAFPRFKKRGQNDAFRYPQGVKLDQENSRIFLPKLGWMRYRNSRQVTGVVKNVTVSQSCGKWYISIQTESEVSTPVHPSASMVGLDAGVAKLATLSDGTVFEPVNSFQKNQKKLARLQRQLSRKVKFSNNWQKQKRKIQRLHSCIANIRRDYLHKVTTAVSKNHAMIVIEDLKVSNMSKSAAGTVSQPGRNVRAKSGLNRSILDQGWYEMRRQLAYKQLWRGGQVLAVPPAYTSQRCAYCGHTAKENRLSQSKFRCQVCGYTANADVNGARNILAAGHAVLACGEMVQSGRPLKQEPTEMIQATALEHHHHHH | not soluble |
| MIQKINILDSSQSGVKNGADSEAVLAALIEHLELINPSGRLSQNTRSAMLQLREEEWSEFFFWLLNSLECLDYVIINLTPESKKTLMSEHRNNIQVAIDALYSQRRRKSPGDESETLTRRNDAIFGNHVWQTFAQYFPPGLEKPSV | not soluble |
| MLNSEKMIASLDQQDLAHAEKYFQKALKEDDADSLIALGEYLESIGFLPHAKRIYLQLADDYPELNINLAQIAAEDDAIEEAFLYLDKVSKDSPNYLSALLVMADLYDMEGLTEVAREKLLQAVGISPEPLVIFGLAEIDMSLQHFKEAIDYYAQLDNRQILELTGISTYQRIGRAYASLGKFEAAIEFLEKAVAIEYEDETVFELATLMYDQENYQKANLYFKQLETINPDYPGYEYGYALSLHEEHKTSEALRLVQQGLRKNAFDSQLLLLASQLSYELHDRQNAENYLLQAKEVAVDDEEILMRLVTLYFDAERFEEVIALNRETIDNVLTKWTIAKAYHALEQEEVALALYNEISADLAENPEFLQDYAYLLREFGQFHKAIQMATAYLRQVPDDVNMQDFLDHIKHQQSE | not soluble |
| MSCCKECGHTLENVEVEAYEKRQVFDIPPVNLIVTEHKSQIKTCPHCGRINKAVFPESVKYPVQYGPNILASAIYCKNHHFIPYERISEFFEDIMGIKICPATIIRAEKECFQNLECFENIIREKLMTSYVVHFDETGMKIEGKRHWLHVASNDKYTCYLPHSKRGAEAIDAMGILPEFKGVAVHDGWKPYNVYDCDHAL | not soluble |
| MSLGLLNCLTGAALPLMESDVTSYVSGYALGLTASLTYGNLEAQPFQGLFVYPIDEYSTVVGFEAVIADRVVTIQLRDKAKLDRSHLDIQPATVTGNFPEEESPIAPGKVTLDEDLERVLFVVNLGTIAPMENVTVFISTSSELPTLPSGAVRVLLPAICAPTVPPSCTHRFGSSSPQPQGKDPHCFGTQTKDSYNRLCLATLLDTKVTNPMEYEFKFQLEIRGPCLLAGVESPTHEIRADAAPSAHSAKSIIITLAKKHTFDRPVEILLHPSEPHMPHVLVEKGDMTLGEYDQHLKGKADFIRGTKKDNSAERKTEVIRKRLHKDIPHHSVIMLNFCPDLQSVQPNPRKAHGEFIFLIDRSNSMSKTNIQCIKEAMLVALKSLMPACFFNIIGFGSTFKAVFASSRIYNEENLTMACDCIQRMQADMGGTNMLSPLKWVLRQPLRRGHPRLLFLITDGSVNNTGKVLELVRNHASSTRCYSFGIGPTVCYRLVKGLASVSKGSAEFLMEGERLQPKMVKSLKKAMAPVLSDVTVEWVFPETTEALISPVSTSSLFPGERLMGYGIVCDASLYISNSRSEGHHHHHH | not soluble |
| MKITFIGGGNMAGAMIGGLIHHGSTPSHICAVETDAMRRQQLAEACGVTVTASIPDGIHGSEIVILAVKPQQLRAVANQAAQFLQNKLVISIAAGVRASDLSQWLNRHEFVIRAMPNTPALIGEGITGLYALPLVDSRQKEQATTILEAIGTVIWVNEEAQLDAVTALSGSGPAYVFYFLEAMQEAGTQLGLTADTAKQLAMQTFLGATHLAAQSNDTLATLRMKVTSQGGTTEQALLSMEQADIRGAFIRAMHAACDRSRQMGEIFGRTLEHHHHHH | soluble |
| GVEITEGVTVTAKGNTEGNTADLAIDGDLSTYWESSNDYKWIEVDLGGIYELSKIEIFNKDEAVYKYNIYASEDGENFNKIAYKNNDNVSDSNGNMHTIDNVRAGKIRIDVVQNSNSDRVNIAEINVFGKNTGESLPEVKKIATSNFSETPWATEYEKFNSDSAYANEKTLNEIKNLVGRVIGREFKDKFIFEIRDQLNGNDVFEVSDSGDGKVLIKGNNGVSLASGFNYYLKNYCNVSYNPIMGSNLKMPETMPSVGERVVIDTPYEHRYALNFCTYSYTMSFWDWDQYEEFLDWCAMNGVNLVLDIIGQEEVLRRTLNEFGYSDEEVKEFISGPAYFAWFYMQNMTGFGGPLPNDWFEQRAELGRKMHDRMQSFGINPVLQGYSGMVPRDFKEKNQEAQTISQGGWCGFDRPDMLKTYVNEGEADYFQKVADVFYEKQKEVFGDVTNFYGVDPFHEGGNTGDLDNGKIYEIIQNKMIEHDNDAVWVIQNWQGNPSNNKLEGLTKKDQAMVLDLFSEVSPDWNRLEERDLPWIWNMLHNFGGRMGMDAAPEKLATEIPKALANSEHMVGIGITPEAINTNPLAYELLFDMAWTRDQINFRTWTEDYIERRYGKTNKEILEAWNIILDTAYKKRNDYYQGAAESIINARPGFGIKSASTWGHSKIVYDKSEFEKAIEIFAKNYDEFKDSDAFLYDFADILKQLLANSAQEYYEVMCNAYNNGNGEKFKFVSGKFLELIKLQERVLSTRPEFLIGNWIEDARTMLKDSDDWTKDLFEFNARALVTTWGSRNNADGGGLKDYSNRQWSGLTEDYYYARWEKWINGLQAELDGGAKAPNIDWFKMEYDWVNKKSDTDKLYPTEASNENLGELAKIAMESYSVTNMDKILGENES | soluble |
| MSLKERFSPKMLSDITGVSIRTLHYYHEKGLLVPQQMSANGYRYYNVQDISKLQYILFLKELDLTLKQIQIYFEGDSDFRTKILHDNFYHIVKKRDRLNDIICTLEHHFHQDNEEIEVTTMQNFNLNEQYEKEAASKYGDTHYYQAYKDKQKSKDESEQQNHFEEINKQLNMFFDDMNQLYLNKVSILEASGKIKKLLCILKEQVPNCDNQFLEYIAQIYIEDERFVKFINKQRERGLNLYISDAIKTFIKEGHHHHHH | soluble |
| MGSDKIHHHHHHMNIEGNIAIICITENGKKLALKINSLVNNCVIYQVKNKKSNLVVEETCVHTVQKKLSDFVGEIFSKFDYIVFIMATGIVVRSIAPYIISKFSDPAILVMDEKGKNVISLLSGHIGGANSLTQYISSLIDANPVITTATDINQKASLDMIAKKLNAHIDNFRESVKEVNSMLVNNKCVGLYVDEGYQVDTRGFKLIESKDELRDSFSNTYIEKLVVVSNKINCIEDIENLNLDNKFEHCYSTQKIIKVIPRDIVIGIGCRRNTDSELMYNSLEEFLNKQNIDIRAINTVGSIELKKDEKAIIELSKILKVPFKTFSVDEISKVDNLFDKSDFVKKNVGVYSVAEPVAYLLSKGNLLVEKHKYKGITFSVGRIKI | not soluble |
| MGTILDKIVNQKKKEVAALYETYTPVKEKRKTRSLVKALEQFTVIAEVKRASPSKGDINLHVDVRKQVKTYEECGAGAVSVLTDGQFFKGSFYDLQTAREESSIPLLCKDFIIDKIQIDRAYEAGADIILLIVAALTKEKLKELYSYVLEKGLEAIVEVHDEQELEIAIQLNPHVIGINNRNLKTFEVDLSQTEKLGKRLNEEKLLWISESGIHSKEDIIRVKRAGAKGVLVGEALMTSSSIHTFFEDCKVNI | not soluble |
| MNVRNGKASTLRTNDVEPIKDSFSILIIGVDTSTTRASNGNPRSDSLILATFNVKDARVEMTSIPRDSYVHIEDSAKEINKYTKINAAHAYGGPELTMKTVEEEFKIPIDYYVRFDFDAFLKIIDALDGIDVDVPVNFTEQDSKDNQNAITLKKGPQHLNAEQALALARTRHIDSDIERGKRQQLIIKSIVSEATSVSSVSKYSDIIEVVGDNMKTNLTFNQMLSIAKFGMSNKIDIKSLNLKGDSNPMNGIYYYKLNESSVQSISNEFASELGIKQPFPGAAAYSDESSTASNLEHHHHHH | soluble |
| MAHHHHHHMKQSDFIFFVLRFWHFVPPYIIEKYAVSAFLNEDFLRAIRLKIEELRPPGRREPHSCVLKEHSDTSFTRKEVLPPPERLSNPVAMDHWVLYEPKVQNFPLVDGFFLVDSNPMTLVGLRMTTAGEHRTTTSTVRQFTECLAAYFNGWEELSRDMSWEIINVQHADSTPINDWQRCDVVDSDNVSRAENREIAAFWEEEVRQYIAAVSSGDF | not soluble |
| MLTNEQLAALRSRLLDMKRETEDRLKQNDHFGMIRSHAHDAVGELASYDNHPADEATELYEREKDLALKEHAERELREIERALGAIADGTYGTCRVCGRPIPYERLEALPTTLYCREHSPDQTVSQKRPLEEGVLMPPFGKFDFDDRAESVAYDAEDAWQEVARYGTSDTPSDLGKNVDSYSEVYAESEENVGYVEDLENFAAVDLHGQHVRVYPTREHELLENILDDEGIMSNIGDLPAYEKDPYTSKDSYRRYDERPSQQHFGETTP | not soluble |
